Literature values, collected in paper PMC12851578.

Molecular target: F-actin (Oryctolagus cuniculus) (UniProt P68135)
Settings: cited from earlier work

LifeAct (from UniProt Q08641)
Kd: 2.2 µM
